The record followed here is patent US20030166143A1 (CADUS TECHNOLOGIES, published 2003).

The target in one test is C5a receptor (human) (UniProt P21730). The experiment in a line: cell-based or functional assay.
Test [1] deals with T1, human formyl peptide receptor like-1 (FPRL-1) receptor (human, UniProt P25090 1-351).
T1 sequence (looked up): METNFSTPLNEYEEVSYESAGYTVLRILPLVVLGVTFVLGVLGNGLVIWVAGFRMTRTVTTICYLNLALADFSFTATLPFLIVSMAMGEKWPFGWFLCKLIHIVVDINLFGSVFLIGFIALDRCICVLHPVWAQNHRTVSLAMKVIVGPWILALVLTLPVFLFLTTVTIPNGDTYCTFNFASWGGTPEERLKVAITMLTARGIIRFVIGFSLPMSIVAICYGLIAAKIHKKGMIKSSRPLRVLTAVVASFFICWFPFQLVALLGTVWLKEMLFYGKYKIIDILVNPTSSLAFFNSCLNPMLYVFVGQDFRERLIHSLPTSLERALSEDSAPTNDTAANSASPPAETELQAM
The experiment in a line: cell-based or functional assay.

Sequence of C5a receptor (human) (P21730 whole entry): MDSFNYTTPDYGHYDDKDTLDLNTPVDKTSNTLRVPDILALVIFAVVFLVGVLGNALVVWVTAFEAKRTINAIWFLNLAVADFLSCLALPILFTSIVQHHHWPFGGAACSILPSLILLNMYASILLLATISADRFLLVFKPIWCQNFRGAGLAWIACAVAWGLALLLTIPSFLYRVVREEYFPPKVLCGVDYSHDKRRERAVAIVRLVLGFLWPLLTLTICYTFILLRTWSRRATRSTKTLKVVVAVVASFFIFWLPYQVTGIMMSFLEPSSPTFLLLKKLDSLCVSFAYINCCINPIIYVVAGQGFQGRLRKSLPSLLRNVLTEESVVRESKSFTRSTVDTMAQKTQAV

“native C5a ligand (from UniProt P01031 678-751)”: in the test with C5a receptor (human), the fold increase in lacZ expression (fus1:lacZ, autocrine yeast) lay within 8 to 12 fold.

As to SLLWLTCRPWEAM [peptide A5, Ser-Leu-Leu-Trp-Leu-Thr-Cys-Arg-Pro-Trp-Glu-Ala-Met], the “fold stimulation of β-galactosidase (fus1-lacZ) over background” value in test [1] is 8 fold.
